Reference: article PMC10033410 (Nature, 2023)

Target: T1, human APOBEC3G (human, UniProt Q9HC16 1-384)
T1 construct: also called A3G; hA3G; not shown: Strep-tag, C-terminal, kept
Experiment: cryo-EM structure; single-particle cryo-EM of the co-expressed, co-purified complex (SEC peak fraction, 1.9 μM; 30 mM HEPES, 150 mM NaCl, 5% glycerol, 1 mM TCEP); co-purified insect-cell ssRNA between A3G and Vif; monomer map 2.7 Å, dimer states 1, 1' and 2
Conditions: both partners purified

T1 sequence (Q9HC16 whole entry): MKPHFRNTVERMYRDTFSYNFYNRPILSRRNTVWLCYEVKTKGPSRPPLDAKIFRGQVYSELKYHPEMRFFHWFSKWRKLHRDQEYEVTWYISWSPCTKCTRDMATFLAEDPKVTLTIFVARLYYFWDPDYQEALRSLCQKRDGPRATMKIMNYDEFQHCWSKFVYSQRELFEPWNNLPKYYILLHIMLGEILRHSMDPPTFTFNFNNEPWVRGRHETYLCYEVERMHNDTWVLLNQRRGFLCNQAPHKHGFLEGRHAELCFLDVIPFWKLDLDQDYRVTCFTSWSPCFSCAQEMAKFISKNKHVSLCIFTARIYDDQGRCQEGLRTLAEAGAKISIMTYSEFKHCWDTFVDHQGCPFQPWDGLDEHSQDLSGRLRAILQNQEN

B1: HIV-1 HXB2 Vif (natural protein)
chain: not shown
notes: also called Vif_(HXB2)
B1: binds.
